Experiment [1] concerns the target mouse Fas ligand (mouse) (UniProt P41047). Nature of the experiment: cell-based or functional assay.
Experiment [2] deals with human Fas ligand (human) (UniProt P48023). Nature of the experiment: cell-based or functional assay.

In patent publication US20020044944A1 one finds specific cytotoxicity inhibition activity (51Cr release; FLm14 effector cells, W4 target cells; FIG. 12) (times higher than hFas-Fc), specific cytotoxicity inhibition activity (51Cr release; 1A12 effector cells, WC8 target cells; FIG. 11) (times higher than hFas-Fc) and cytotoxicity inhibition activity by the assay described in Inventive Example 8 data, which are given here for two molecules.

Sequence of UniProt P48023 (P48023 whole entry): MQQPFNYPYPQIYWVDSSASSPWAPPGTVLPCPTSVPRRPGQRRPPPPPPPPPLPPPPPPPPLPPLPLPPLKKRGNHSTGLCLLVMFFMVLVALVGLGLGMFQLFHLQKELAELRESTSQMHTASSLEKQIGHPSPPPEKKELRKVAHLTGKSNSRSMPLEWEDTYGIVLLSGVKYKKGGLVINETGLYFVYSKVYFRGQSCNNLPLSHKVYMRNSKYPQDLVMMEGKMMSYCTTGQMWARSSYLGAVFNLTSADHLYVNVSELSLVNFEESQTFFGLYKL
Sequence of UniProt P41047 (P41047 whole entry): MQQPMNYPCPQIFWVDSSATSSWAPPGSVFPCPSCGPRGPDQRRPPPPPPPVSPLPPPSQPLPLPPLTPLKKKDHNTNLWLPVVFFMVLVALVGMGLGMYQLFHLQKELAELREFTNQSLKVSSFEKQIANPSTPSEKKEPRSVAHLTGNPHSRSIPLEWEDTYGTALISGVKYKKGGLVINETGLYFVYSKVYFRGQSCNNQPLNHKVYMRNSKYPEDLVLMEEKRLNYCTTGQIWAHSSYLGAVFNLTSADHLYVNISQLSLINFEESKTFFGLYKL

B1: shFas(nd29)-hinge (receptor)
chain: TQNLEGLHHDGQFCHKPCPPGERKARDCTVNGDEPDCVPCQEGKEYTDKAHFSSKCRRCRLCDEGHGLEVEINCTRTQNTKCRCKPNFFCNSTVCEHCDPCTKCEHGIIKECTLTSNTKCKEEGSRSNEPKSCDKTHTCPPCP
For the molecule B1, the specific cytotoxicity inhibition activity (51Cr release; FLm14 effector cells, W4 target cells; FIG. 12) (times higher than hFas-Fc) in experiment [1] lay within 3 to 10. Moreover, the specific cytotoxicity inhibition activity (51Cr release; 1A12 effector cells, WC8 target cells; FIG. 11) (times higher than hFas-Fc) in experiment [2] fell in the range of 3 to 10.

B2: shFas(nd29)-hinge, higher molecular weight gel filtration fraction (fractions 1 and 2, seemed to correspond to a dimer) (receptor)
chain: TQNLEGLHHDGQFCHKPCPPGERKARDCTVNGDEPDCVPCQEGKEYTDKAHFSSKCRRCRLCDEGHGLEVEINCTRTQNTKCRCKPNFFCNSTVCEHCDPCTKCEHGIIKECTLTSNTKCKEEGSRSNEPKSCDKTHTCPPCP
In experiment [2] (scale: times stronger than the lower molecular weight fraction), B2 showed a cytotoxicity inhibition activity by the assay described in Inventive Example 8 greater than 50.
